Data: article PMC6214142, “Transcription of the Human 5-Hydroxytryptamine Receptor 2B (HTR2B) Gene Is under the Regulatory Influence of the Transcription Factors NFI and RUNX1 in Human Uveal Melanoma”

Experiments:
NFIB = NFIB (Homo sapiens, UniProt O00712 1-420); assay: EMSA; EMSA: 10 mM Hepes pH 7.9, 10% glycerol, 0.1 mM EDTA, 0.5 mM DTT, 0.25 mM PMSF, 50 mM KCl, 2 ug poly(dI:dC); Tris-glycine gels at 4 C; footprinting binding 5 min at room temperature with 5 ug poly(dI:dC); settings: protein: recombinant; chain copies: 2; label: 5' 32P as probe; blunt
NFIC = NFIC (Homo sapiens, UniProt P08651 1-508); assay: as above; settings: protein: recombinant; chain copies: 2; label: 5' 32P as probe; blunt
NFIA = NFIA (Homo sapiens, UniProt Q12857 1-509); assay: as above; settings: protein: recombinant; chain copies: 2; label: 5' 32P as probe; blunt
NFIX = NFIX (Homo sapiens, UniProt Q14938 1-502); assay: EMSA; EMSA: 10 mM Hepes pH 7.9, 10% glycerol, 0.1 mM EDTA, 0.5 mM DTT, 0.25 mM PMSF, 50 mM KCl, 2 ug poly(dI:dC); Tris-glycine gels at 4 C; footprinting binding 5 min

Measured: binding result

NFIA, sequence (Q12857 whole entry): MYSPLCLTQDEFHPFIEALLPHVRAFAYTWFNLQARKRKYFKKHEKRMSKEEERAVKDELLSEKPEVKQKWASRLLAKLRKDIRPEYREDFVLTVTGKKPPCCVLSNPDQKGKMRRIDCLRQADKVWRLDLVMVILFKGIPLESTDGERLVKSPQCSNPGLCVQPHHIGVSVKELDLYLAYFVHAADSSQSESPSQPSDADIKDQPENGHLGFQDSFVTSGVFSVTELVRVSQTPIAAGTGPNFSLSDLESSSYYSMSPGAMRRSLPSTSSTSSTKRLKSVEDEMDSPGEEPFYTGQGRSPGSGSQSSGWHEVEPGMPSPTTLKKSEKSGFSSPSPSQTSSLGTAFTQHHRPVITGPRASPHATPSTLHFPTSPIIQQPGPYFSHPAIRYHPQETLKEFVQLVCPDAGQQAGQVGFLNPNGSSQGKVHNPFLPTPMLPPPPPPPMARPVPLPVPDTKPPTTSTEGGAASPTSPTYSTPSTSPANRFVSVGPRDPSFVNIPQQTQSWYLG
NFIC, sequence (P08651 whole entry): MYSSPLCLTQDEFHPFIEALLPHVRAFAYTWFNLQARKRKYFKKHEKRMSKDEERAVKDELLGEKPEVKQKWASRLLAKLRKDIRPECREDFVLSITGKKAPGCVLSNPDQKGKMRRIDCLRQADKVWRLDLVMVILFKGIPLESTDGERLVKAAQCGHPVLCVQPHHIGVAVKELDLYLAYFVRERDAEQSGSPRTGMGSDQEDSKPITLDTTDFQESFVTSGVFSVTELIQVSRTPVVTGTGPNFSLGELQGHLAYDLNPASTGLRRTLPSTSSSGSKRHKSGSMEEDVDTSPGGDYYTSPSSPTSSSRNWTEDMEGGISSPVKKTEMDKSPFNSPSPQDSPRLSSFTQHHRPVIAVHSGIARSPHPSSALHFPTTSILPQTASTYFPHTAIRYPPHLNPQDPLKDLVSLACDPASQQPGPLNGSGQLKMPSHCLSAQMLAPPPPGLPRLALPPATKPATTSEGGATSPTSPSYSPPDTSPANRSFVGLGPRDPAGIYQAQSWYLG

B1: NFI high affinity probe (dsDNA)
DNA 1: TTATTTTGGATTGAAGCCAATATGAG
DNA 2: CTCATATTGGCTTCAATCCAAAATAA
binds: NFIB | NFIC | NFIA | NFIX
